B1: modified human antibody 028-8-12: human antibody 028-8-12 with amino acid modifications in CDR and VL regions; VH SEQ ID NO: 63, VL SEQ ID NO: 67 (antibody, V domains shown)
VH: EVQLLESGGGLVQPGGSLRLSCAASGFTFSELSMSWVRQAPGKGLEWVSAISGSGGSTYYASSVKGRFTISRDNSKNTLYLQMNSLRAEDTAVYYCAREGGRLEPYYYYYAMDVWGQGTPVTVSS
VL: DIQMTQSPSSLSASVGDRVTITCRASQSISDNLHWYQQKPGKAPKLLIYDASNLESGVPSRFSGSGSGTDFTLTISSLQPEDFATYYCQQYYSTPLTFGQGTKLEIK
B2: Hu1A-7H10: humanized antibody VH1/VL1; VH SEQ ID NO: 68, VL SEQ ID NO: 70 (antibody, V domains shown)
VH: QVTLKESGPVLVKPTETLTLTCTVSGFSSTTYGVHWVRQPPGKALEWLGVIWAGGSTNYNAALMSRLTISKDTSKSQVVLTMTNMDPVDTATYYCATQYHYPFAYWGQGTLVTVSS
VL: DIQMTQSPSSLSASVGDRVTITCKASENVGIYVSWYQQKPGKAPKLMIYGASNRNTGVPSRFSGSGSGTDFTLTISSLQPEDFATYYCGQSYSYPLTFGGGTKVEIK
B3: Hu4A-2F7: humanized antibody VH1/VL1; VH SEQ ID NO: 72, VL SEQ ID NO: 74 (antibody, V domains shown)
VH: QVTLKESGPALVKPTQTLTLTCTFSGFSLSTSGMGVDWIRQPPGKALEWLAHIWWDDDKYYNPSLKSQLTISKDTSKNQVVLTMTNMDPVDTATYYCARSYGYDMDYYAMDYWGQGTTVTVSS
VL: DIQMTQSPSSLSASVGDRVTITCRASQEISGYLSWLQQKPGKAPKRLIYAASTLSSGVPSRFSGSGSGTDFTLTISSLQPEDFATYYCLQYASYPPWTFGGGTKVEIK

Legend:
CXCR2-expressing cells = assay: In vivo migration inhibitory activity test on CXCR2-expressing cells, OCUM-12 orthotopic transplantation (prevention model); design: species or system mouse; conditions: 400 μg/head intraperitoneally twice a week, 3 weeks; compared to hIgG1 antibody
Excerpt: (§1) The stomachs after measurement of the tumor size in [3-1] above were excised and fixed overnight at room temperature with a 10% neutral buffered formalin solution (Wako Pure Chemical Industries, Ltd., Japan), followed by replacement with PBS. Then, paraffin embedding and section preparation were outsourced to Applied Medical Research Laboratory, Japan. The prepared gastric tumor sections were immunohistologically stained with an anti-CXCR2 antibody to evaluate in vivo CXCR2 cell migration inhibitory activity. The sections were deparaffinized and rehydrated, and then treated to inactivate endogenous peroxidase. After antigen activation treatment, the sections were blocked with PBS containing 2% skimmed milk and 0.1% Tween-20, and reacted overnight at 4° C. with an anti-CXCR2 antibody (Biorbyt) as a primary antibody, which had been diluted to 0.3 μg/mL with the blocking solution. After washing with PBS containing 0.1% Tween-20, the sections were reacted at room temperature for 1 hour with an HRP-labeled goat anti-rabbit IgG antibody (Abcam) as a secondary antibody. After washing with a washing solution, a simple stain DAB solution (5052, Nichirei Corporation, Japan) was used to cause color development. After images of the stained tissues were captured with an Explore (Olympus Corporation, Japan), imaging software CellSens (Olympus Corporation, Japan) was used to calculate CXCR2-positive cells per unit area.
(§2) Navarixin is among small molecular compounds that act on CXCR2 and inhibit CXCL1-CXCR2 signaling. […] Then, using a model with OCUM-12 orthotopic transplantation, the migration inhibition of CXCR2-expressing cells and antitumor activity were evaluated in vivo for Navarixin. As a vehicle, ultrapure water containing 20% 2-hydroxypropyl-β-cyclodextrin (FUJIFILM Wako Pure Chemical Corporation, Japan) was used. Navarixin (MedChemExpress) was dissolved in ultrapure water containing 20% 2-hydroxypropyl-β-cyclodextrin, and orally administered at a dose of 100 mg/kg/day in a schedule of once a day for 5 consecutive days, followed by a 2-day withdrawal.
as §1, with “after measurement were excised” for “after measurement of the tumor size in [3-1] above were excised”, “and 0.1% Tween-20 (hereinafter referred to as the blocking solution), and reacted” for “and 0.1% Tween-20, and reacted”, “been diluted 1667-fold with the” for “been diluted to 0.3 μg/mL with the”, “to calculate positive cells per” for “to calculate CXCR2-positive cells per”
The dose-response relationship between antibody dose and in vivo antitumor activity or CXCR2 migration inhibitory activity was evaluated in a xenograft prevention model with OCUM-12 orthotopic transplantation. A prevention model is a model designed to start antibody administration from the day following tumor transplantation. […]

[1] = system: OCUM-12 gastric cancer cell line; assay: Antitumor activity test, model with OCUM-12 orthotopic transplantation (prevention model); format: in vivo, mouse; conditions: 400 μg/head intraperitoneally twice a week, 3 weeks; compared to hIgG1 antibody
Experimental: A model with OCUM-12 orthotopic transplantation was prepared to evaluate the above 4 types of candidate antibodies for their in vivo CXCR2 migration inhibitory activity and antitumor activity in a xenograft model with OCUM-12 orthotopic transplantation.
For use as mice, female nude mice (BALB/cAJcl-nu/nu) at 5 to 6 weeks of age were purchased from CLEA Japan, Inc., Japan. For use as human cancer cells, a gastric cancer cell line, OCUM-12, was provided by University Public Corporation Osaka, Japan.
OCUM-12 cells were cultured in D-MED medium (FUJIFILM Wako Pure Chemical Corporation, Japan) supplemented with 10% fetal bovine serum (FBS; Sigma-Aldrich Corporation) and 1/100 volumes of a penicillin-streptomycin mixture (Nacalai Tesque, Inc., Japan). The cells to be transplanted were detached with 0.25% trypsin/0.02% EDTA (Thermo Fisher Scientific) and washed with PBS, and 4× 10^5 cells per mouse were transplanted into the gastric wall of each mouse.
On the day following the above transplantation, the mice were randomized into groups (8 or 6 mice per group) and intraperitoneally administered with PBS as a control and with 4 types of candidate antibodies (1A-7H10, 4A-2F7, 5A-5E11 and 028-8-12) and 3 types of non-candidate antibodies (1A-3C6, 1A-2H3 and 4A-5B11) at a dose of 20 mg/kg. In addition, mouse IgG1 as a control was intraperitoneally administered at a dose of 20 mg/kg, and 3 types of antibodies (5A-5E11, 1A-4H10 and 4A-7G7) among the candidate antibodies were intraperitoneally administered at a dose of 20 mg/kg. The administration of these antibodies was then continued with a frequency of twice a week until the completion of the test. After 3 weeks had passed from the transplantation, the mice were sacrificed, and the short- and long-axis diameters of tumors formed in their gastric walls were each measured with a caliper. The tumor size was calculated according to the following: 1/2 short-axis diameter (mm)×1/2 long-axis diameter (mm)×3.14.
as §2
The humanized antibodies were evaluated for their in vivo antitumor activity and CXCR2 migration inhibitory activity in a xenograft model with OCUM-12 orthotopic transplantation. Procedures for the evaluation are shown below.
For use as mice, female nude mice (BALB/cAJcl-nu/nu) at 5 to 6 weeks of age were purchased from CLEA Japan, Inc., Japan. For use as human cancer cells, gastric cancer cell line, OCUM-12, was provided by Osaka Metropolitan University, Japan.
OCUM-12 cells were cultured in D-MED medium (FUJIFILM Wako Pure Chemical Corporation, Japan) supplemented with 10% fetal bovine serum (hereinafter abbreviated as FBS; Sigma-Aldrich Corporation) and 1/100 volumes of a penicillin-streptomycin mixture (Nacalai Tesque, Inc., Japan). The cells to be transplanted were detached with 0.25% trypsin/0.02% EDTA (Thermo Fisher Scientific) and washed with PBS, and 4×10^5 cells per mouse were transplanted into the gastric wall of each mouse. On the day following the transplantation, the mice were randomized into groups (8 mice per group) and intraperitoneally administered with test antibodies at a dose of 400 μg/head. PBS was intraperitoneally administered in a volume of 200 μL with a frequency of twice a week for 3 weeks, starting from the day following the transplantation. […]

Molecule	Migration of CXCR2-expressing cells (positive cells per unit area) (CXCR2-expressing cells)	Antitumor activity (tumor area) [1]
B1	significantly suppress the migration of CXCR2-expressing cells	significantly suppress an increase in the tumor area
B2	significantly suppress the migration of CXCR2-expressing cells	significantly suppress an increase in the tumor area
B3	significantly suppress the migration of CXCR2-expressing cells	significantly suppress an increase in the tumor area

From patent US20250154240A1, “ANTI-HUMAN CXCL1 ANTIBODY” (CHIOME BIOSCIENCE INC., priority 2022, published 2025)
